From article PMC9245003 come the findings set out here.

Common to all, as to assay: SEC-MALS
For orientation: In gel filtration, larger molecules generally elute earlier.

Test [1] deals with gH/gL 7-mer nanoparticle (gH-C153T-IMX313 / gL) (Epstein-Barr virus | Gallus gallus) (UniProt P03231).
For test [2], the target named is gH/gL 24-mer nanoparticle (gH-ferritin / gL) (Epstein-Barr virus | Helicobacter pylori) (UniProt P03231).
Test [3] deals with gH/gL 60-mer nanoparticle (gH-C153T-I3 / gL) (Epstein-Barr virus) (UniProt P03231).

As for “gH/gL 7-mer nanoparticle (gH-C153T-IMX313 / gL) (from UniProt P03231;P03212) (complex)”, the stoichiometry N in test [1] turned out to be 7.
In turn, “gH/gL 24-mer nanoparticle (gH-ferritin / gL) (from UniProt P03231;P03212) (complex)” registered a stoichiometry N in test [2] of 24.
The substance “gH/gL 60-mer nanoparticle (gH-C153T-I3 / gL) (from UniProt P03231;P03212) (complex)” yielded a stoichiometry N in test [3] of 60.

In general, stoichiometry N refers to a count of units in the complex or per binding partner.
